Source: article PMC10085991

Assays:
[1] = molecular target: β2 adrenergic receptor 148C-378C (min-C-β2AR with N148C and native C378) (human) (UniProt P07550); experiment: FRET or BRET; single-molecule FRET (TIRF), receptor immobilised by FLAG/M1 Fab; titration of Gs^GDP with 100 μM isoproterenol and 20 μM cmpd-6 (positive allosteric modulator); 25 °C
[2] = molecular target: β2 adrenergic receptor 148C-378C (min-C-β2AR with N148C and native C378) (human) (UniProt P07550); experiment: FRET or BRET; single-molecule FRET (TIRF), receptor immobilised by FLAG/M1 Fab; titration of Gs^GDP with 100 μM isoproterenol and 20 μM cmpd-15 (negative allosteric modulator); 25 °C
[3] = molecular target: β2 adrenergic receptor 148C-378C (min-C-β2AR with N148C and native C378) (human) (UniProt P07550); experiment: FRET or BRET; single-molecule FRET (TIRF) between labels at 148C and 378C of the receptor; receptor immobilised by N-terminal FLAG on biotinylated M1 Fab; Gs^GDP 3.16 nM to 10 μM in solution; 200 μM isoproterenol; 25 °C; 50 mM HEPES pH 7.5, 100 mM NaCl, 5 mM MgCl2, 5 mM CaCl2, 0.01% MNG, 0.001% CHS; apparent EC50 of low-FRET occupancy

Gs heterotrimer (human Gαs, rat Gβ1, bovine Gγ2) (from UniProt P63092 1-394; P54311 1-340; P63212 1-71) (complex)
EC50 [1]: 0.026 µM
EC50 [2]: 0.35 µM
EC50 [3]: 0.1 µM
high-FRET dwell time, plateau at high Gs concentration [3]: 2 s
